Substitutions are numbered along the chain they refer to. Values belong to the binder of their own block, whether it stands above or below them.
Columns and labels:
[1] = target: T1, B7H3 (antigen of the affinity statements) (human, UniProt Q5ZPR3 29-466, limits assumed); assay: monovalent affinity in 1+1 bsAb format (Example 2B)
T1 construct: also called CD276
T1 sequence (looked up): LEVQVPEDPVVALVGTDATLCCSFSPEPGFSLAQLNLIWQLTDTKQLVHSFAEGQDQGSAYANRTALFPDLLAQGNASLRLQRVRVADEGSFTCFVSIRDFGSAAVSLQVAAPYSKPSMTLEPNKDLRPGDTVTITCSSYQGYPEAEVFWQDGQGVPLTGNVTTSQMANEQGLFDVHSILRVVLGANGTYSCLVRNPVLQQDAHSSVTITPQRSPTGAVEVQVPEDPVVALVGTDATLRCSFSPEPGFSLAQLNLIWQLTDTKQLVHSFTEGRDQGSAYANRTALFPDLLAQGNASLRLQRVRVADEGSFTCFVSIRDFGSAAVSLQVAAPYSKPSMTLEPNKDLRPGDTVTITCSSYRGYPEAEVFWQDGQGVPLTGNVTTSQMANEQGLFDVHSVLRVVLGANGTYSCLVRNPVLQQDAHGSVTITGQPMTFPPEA

[2] = target: T2, CD28 (antigen of the affinity determinations) (human, UniProt P10747 19-152, limits assumed); assay: binding affinity of the CD28 binding domain; method not given
T2 construct: also called human CD28

[3] = target: T3, mouse Fc fusion of B7H3, full extracellular V1C1-V2C2 domain (human, UniProt Q5ZPR3 29-466); assay: Octet (BLI), B7H3 mouse Fc fusions on anti-mouse Fc biosensors, 1:1 Langmuir fit
T3 construct: extracellular domain; Fusions of the single V1C1 and V2C2 domains were tested as well; also called B7H3 antigen; printed 'V1C1-V2V2'; not shown: mouse Fc
T3 sequence (looked up): T1 sequence (looked up)
From the text: To investigate whether the difference observed for XENP34339 resulted from the difference in B7H3 binding domain or the difference in bispecific antibody format, the component binding domains of XENP34339 and XENP34389 were biophysically characterized using Octet. […] Anti-mouse Fc biosensors were used to capture mouse Fc fusions of B7H3, either the full extracellular V1C1-[…] domain or the individual V1C1 or V2C2 domains, and dipped into multiple concentrations of XENP34717 or XENP34728. Kinetic analyses were performed by global fitting of binding data with a 1:1 Langmuir binding model. […] Next, the binding affinities of the CD28 binding domains for CD28 antigen in the 2+1 CLC format and the 2+1 Fab2-scFv-Fc format was investigated. Anti-HIS capture (HIS1K) biosensors were used to capture CD28-Fc-His protein and dipped into multiple concentrations of XENP34339 or XENP34389. Kinetic analyses were performed by global fitting of binding data with a 1:1 Langmuir binding model as well as steady state model. The resulting dissociation constant (KD) are depicted in FIG. 53.

binding result [3]: binds
B3: XENP34717 (bispecific antibody)
heavy 1: EVQLLESGGGLVQPGGSLRLSCAASGFTFSSYYMSWVRQAPGKGLEWVSTISESGDSTYYADSVKGRFTISRDNSKNTLYLQMNSLRAEDTAVYYCAKSGPGLRQVGFDYWGQGTLVTVSSASTKGPSVFPLAPSSKSTSGGTAALGCLVKDYFPEPVTVSWNSGALTSGVHTFPAVLQSSGLYSLSSVVTVPSSSLGTQTYICNVNHKPSDTKVDKKVEPKSCDKTHTCPPCPAPPVAGPSVFLFPPKPKDTLMISRTPEVTCVVVDVKHEDPEVKFNWYVDGVEVHNAKTKPREEEYNSTYRVVSVLTVLHQDWLNGKEYKCKVSNKALPAPIEKTISKAKGQPREPQVYTLPPSREEMTKNQVSLTCDVSGFYPSDIAVEWESDGQPENNYKTTPPVLDSDGSFFLYSKLTVDKSRWEQGDVFSCSVMHEALHNHYTQKSLSLSPGK
heavy 2: QVQLVQSGAEVKKPGASVKVSCKASGYIFTNNYMHWVRQAPGQGLEWMGIISPSVGRTAYAQKFQGRVTMTRDTSTSTVYMELSSLRSEDTAVYYCARGGGSSPRLDYWGQGTLVTVSSASTKGPSVFPLAPSSKSTSGGTAALGCLVKDYFPEPVTVSWNSGALTSGVHTFPAVLQSSGLYSLSSVVTVPSSSLGTQTYICNVNHKPSNTKVDKKVEPKSCDKTHTCPPCPAPPVAGPSVFLFPPKPKDTLMISRTPEVTCVVVDVKHEDPEVKFNWYVDGVEVHNAKTKPREEQYNSTYRVVSVLTVLHQDWLNGKEYKCKVSNKALPAPIEKTISKAKGQPREPQVYTLPPSREQMTKNQVKLTCLVKGFYPSDIAVEWESNGQPENNYKTTPPVLDSDGSFFLYSKLTVDKSRWQQGNVFSCSVMHEALHNHYTQKSLSLSPGK
light: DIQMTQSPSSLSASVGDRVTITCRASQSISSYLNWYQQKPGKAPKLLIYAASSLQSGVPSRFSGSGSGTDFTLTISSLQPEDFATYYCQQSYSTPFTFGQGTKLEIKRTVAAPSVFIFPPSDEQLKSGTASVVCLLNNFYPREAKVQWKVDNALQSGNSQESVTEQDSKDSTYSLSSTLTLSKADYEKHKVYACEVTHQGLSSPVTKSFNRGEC
notes: copies: 1 + 1 + 2

binding result [1]: binds
B7: XENP35153 (bispecific antibody)
heavy: EVQLLESGGGLVQPGGSLRLSCAVSGFSLSSYGVIWVRQAPGKGLEYVSWVSSGGSTNYASSVKGRFTISRDTSKNTVYLQMNSLRAEDTAVYFCARGATNSGTDIWGPGTLVTVSSASTKGPSVFPLAPSSKSTSGGTAALGCLVKDYFPEPVTVSWNSGALTSGVHTFPAVLQSSGLYSLSSVVTVPSSSLGTQTYICNVNHKPSDTKVDKKVEPKSCDKTHTCPPCPAPPVAGPSVFLFPPKPKDTLMISRTPEVTCVVVDVKHEDPEVKFNWYVDGVEVHNAKTKPREEEYNSTYRVVSVLTVLHQDWLNGKEYKCKVSNKALPAPIEKTISKAKGQPREPQVYTLPPSREEMTKNQVSLTCDVSGFYPSDIAVEWESDGQPENNYKTTPPVLDSDGSFFLYSKLTVDKSRWEQGDVFSCSVLHEALHSHYTQKSLSLSPGK
scFv-Fc: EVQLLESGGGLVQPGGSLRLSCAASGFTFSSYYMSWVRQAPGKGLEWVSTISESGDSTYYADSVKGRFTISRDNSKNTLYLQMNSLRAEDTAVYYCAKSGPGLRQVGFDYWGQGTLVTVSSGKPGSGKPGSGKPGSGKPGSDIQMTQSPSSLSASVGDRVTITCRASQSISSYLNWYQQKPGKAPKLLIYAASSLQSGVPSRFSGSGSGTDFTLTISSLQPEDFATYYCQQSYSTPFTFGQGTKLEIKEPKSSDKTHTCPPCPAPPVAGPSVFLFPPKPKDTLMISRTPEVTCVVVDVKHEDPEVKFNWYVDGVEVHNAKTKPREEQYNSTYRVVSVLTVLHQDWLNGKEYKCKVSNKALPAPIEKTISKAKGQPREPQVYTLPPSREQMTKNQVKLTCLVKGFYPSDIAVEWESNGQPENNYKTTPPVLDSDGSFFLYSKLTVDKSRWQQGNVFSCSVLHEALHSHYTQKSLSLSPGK
light: DIVMTQSPSSLSASVGDRVTITCRASQSINSWLSWYQQKPGKPPKLLIYGASNLASGVPSRFKGSGSGTDFTLTISSLQPEDFATYYCQNNYGIIAAGATFGGGTKVEIKRTVAAPSVFIFPPSDEQLKSGTASVVCLLNNFYPREAKVQWKVDNALQSGNSQESVTEQDSKDSTYSLSSTLTLSKADYEKHKVYACEVTHQGLSSPVTKSFNRGEC
notes: 1+1 Fab-scFv-Fc; copies: 1 + 1 + 1

binding result [1]: binds
B8: XENP35151 (bispecific antibody)
heavy: EVQLVESGGGLVKPGGSLRLSCAASGFSFSVGYYMCWVRQAPGKGLEWVSCIYVGSGSSGSTYYASVKGRFTISSDTAKTSVYLQMNSLRAEDTAVYFCARTAGSDWRLDLWGQGTLVTVSSASTKGPSVFPLAPSSKSTSGGTAALGCLVKDYFPEPVTVSWNSGALTSGVHTFPAVLQSSGLYSLSSVVTVPSSSLGTQTYICNVNHKPSDTKVDKKVEPKSCDKTHTCPPCPAPPVAGPSVFLFPPKPKDTLMISRTPEVTCVVVDVKHEDPEVKFNWYVDGVEVHNAKTKPREEEYNSTYRVVSVLTVLHQDWLNGKEYKCKVSNKALPAPIEKTISKAKGQPREPQVYTLPPSREEMTKNQVSLTCDVSGFYPSDIAVEWESDGQPENNYKTTPPVLDSDGSFFLYSKLTVDKSRWEQGDVFSCSVLHEALHSHYTQKSLSLSPGK
scFv-Fc: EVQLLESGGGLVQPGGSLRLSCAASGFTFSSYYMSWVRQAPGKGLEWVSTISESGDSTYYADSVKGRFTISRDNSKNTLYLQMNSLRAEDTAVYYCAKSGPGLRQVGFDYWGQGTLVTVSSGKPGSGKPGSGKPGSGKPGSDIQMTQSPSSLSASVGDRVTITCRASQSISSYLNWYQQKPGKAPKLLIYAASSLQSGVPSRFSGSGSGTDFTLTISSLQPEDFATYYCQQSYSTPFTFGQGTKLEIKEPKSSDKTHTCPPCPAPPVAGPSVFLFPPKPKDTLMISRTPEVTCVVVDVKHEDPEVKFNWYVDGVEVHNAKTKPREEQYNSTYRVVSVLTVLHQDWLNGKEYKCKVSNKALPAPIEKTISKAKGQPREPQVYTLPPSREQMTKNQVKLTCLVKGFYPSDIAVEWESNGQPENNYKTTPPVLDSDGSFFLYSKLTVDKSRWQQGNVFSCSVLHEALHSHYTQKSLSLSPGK
light: DIVMTQSPSSLSASVGDRVTITCRASQSIANELSWYQQKPGKPPKLLIYRASTLTSGVPSRFKGSGSGTDFTLTISSLQPEDFATYYCQSTYNGRAIGFGGGTKVEIKRTVAAPSVFIFPPSDEQLKSGTASVVCLLNNFYPREAKVQWKVDNALQSGNSQESVTEQDSKDSTYSLSSTLTLSKADYEKHKVYACEVTHQGLSSPVTKSFNRGEC
notes: as for B7

Further lines, the binder ahead of its results:

B1: XENP34732 (bispecific antibody)
heavy: EVQLLESGGGLVQPGGSLRLSCAASGFTFSNYYMAWVRQAPGKGLEWVSSISTGGGSTYYRDSVKGRFTISRDNSKSTLYLQMNSLRAEDTAVYYCTTDLSAIAATPFAYWGQGTLVTVSSASTKGPSVFPLAPSSKSTSGGTAALGCLVKDYFPEPVTVSWNSGALTSGVHTFPAVLQSSGLYSLSSVVTVPSSSLGTQTYICNVNHKPSDTKVDKKVEPKSCDKTHTCPPCPAPPVAGPSVFLFPPKPKDTLMISRTPEVTCVVVDVKHEDPEVKFNWYVDGVEVHNAKTKPREEEYNSTYRVVSVLTVLHQDWLNGKEYKCKVSNKALPAPIEKTISKAKGQPREPQVYTLPPSREEMTKNQVSLTCDVSGFYPSDIAVEWESDGQPENNYKTTPPVLDSDGSFFLYSKLTVDKSRWEQGDVFSCSVLHEALHSHYTQKSLSLSPGK
scFv-Fc: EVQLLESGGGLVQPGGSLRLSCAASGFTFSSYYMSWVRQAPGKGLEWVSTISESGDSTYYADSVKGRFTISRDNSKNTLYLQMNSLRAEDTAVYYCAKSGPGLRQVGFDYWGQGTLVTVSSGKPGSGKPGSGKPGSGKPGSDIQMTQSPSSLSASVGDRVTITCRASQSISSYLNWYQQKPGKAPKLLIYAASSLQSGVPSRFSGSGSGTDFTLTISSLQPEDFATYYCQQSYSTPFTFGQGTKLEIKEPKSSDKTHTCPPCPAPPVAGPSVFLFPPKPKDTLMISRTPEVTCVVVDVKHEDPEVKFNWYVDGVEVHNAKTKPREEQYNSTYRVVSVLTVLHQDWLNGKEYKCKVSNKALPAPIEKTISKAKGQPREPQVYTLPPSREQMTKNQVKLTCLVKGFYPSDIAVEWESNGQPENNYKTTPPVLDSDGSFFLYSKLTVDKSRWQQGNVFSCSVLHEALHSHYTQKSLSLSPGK
light: DIQMTQSPSSLSASVGDRVTITCRASQNIYTSLAWYQQKPGKAPKLLIYNAHSLQTGIPSRFSGSGSGADFTLTISSLQPEDFATYFCQQYYSGLTFGSGTKLEIKRTVAAPSVFIFPPSDEQLKSGTASVVCLLNNFYPREAKVQWKVDNALQSGNSQESVTEQDSKDSTYSLSSTLTLSKADYEKHKVYACEVTHQGLSSPVTKSFNRGEC
notes: as for B7
binding result [1]: binds

B2: XENP34339 (bispecific antibody)
heavy 1: B3 heavy 1
heavy 2: QVQLVQSGAEVKKPGASVKVSCKASGYIFTNNYMHWVRQAPGQGLEWMGIISPSVGRTAYAQKFQGRVTMTRDTSTSTVYMELSSLRSEDTAVYYCARGGGSSPRLDYWGQGTLVTVSSASTKGPSVFPLAPSSKSTSGGTAALGCLVKDYFPEPVTVSWNSGALTSGVHTFPAVLQSSGLYSLSSVVTVPSSSLGTQTYICNVNHKPSNTKVDKKVEPKSCGKPGSGKPGSQVQLVQSGAEVKKPGASVKVSCKASGYIFTNNYMHWVRQAPGQGLEWMGIISPSVGRTAYAQKFQGRVTMTRDTSTSTVYMELSSLRSEDTAVYYCARGGGSSPRLDYWGQGTLVTVSSASTKGPSVFPLAPSSKSTSGGTAALGCLVKDYFPEPVTVSWNSGALTSGVHTFPAVLQSSGLYSLSSVVTVPSSSLGTQTYICNVNHKPSNTKVDKKVEPKSCDKTHTCPPCPAPPVAGPSVFLFPPKPKDTLMISRTPEVTCVVVDVKHEDPEVKFNWYVDGVEVHNAKTKPREEQYNSTYRVVSVLTVLHQDWLNGKEYKCKVSNKALPAPIEKTISKAKGQPREPQVYTLPPSREQMTKNQVKLTCLVKGFYPSDIAVEWESNGQPENNYKTTPPVLDSDGSFFLYSKLTVDKSRWQQGNVFSCSVMHEALHNHYTQKSLSLSPGK
light: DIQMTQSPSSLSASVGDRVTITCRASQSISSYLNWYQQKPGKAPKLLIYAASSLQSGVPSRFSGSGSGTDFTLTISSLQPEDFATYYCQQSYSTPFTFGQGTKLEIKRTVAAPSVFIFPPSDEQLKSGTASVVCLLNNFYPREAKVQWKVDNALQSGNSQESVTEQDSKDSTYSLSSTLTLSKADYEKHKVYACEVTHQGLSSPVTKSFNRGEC
notes: 2+1 CLC format; also called B7H3 x CD28 bsAb in 2+1 CLC format; copies: 1 + 1 + 3
Kd [2]: 77 nM

B4: XENP34336 (bispecific antibody)
heavy 1: B3 heavy 1
heavy 2: B2 heavy 2 with N32H, V55A, R57S, A59D, N264H, V287A, R289S, A291D
light: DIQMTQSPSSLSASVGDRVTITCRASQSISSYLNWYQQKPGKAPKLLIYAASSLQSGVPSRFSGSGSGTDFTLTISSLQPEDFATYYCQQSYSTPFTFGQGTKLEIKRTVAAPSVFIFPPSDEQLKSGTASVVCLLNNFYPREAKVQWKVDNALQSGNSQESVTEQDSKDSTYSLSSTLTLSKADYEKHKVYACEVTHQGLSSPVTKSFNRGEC
notes: 2+1 CLC format; copies: 1 + 1 + 3
Kd [2]: 440 nM

B5: XENP35612 (bispecific antibody)
heavy 1: B3 heavy 1 with E53G
heavy 2: B2 heavy 2
light: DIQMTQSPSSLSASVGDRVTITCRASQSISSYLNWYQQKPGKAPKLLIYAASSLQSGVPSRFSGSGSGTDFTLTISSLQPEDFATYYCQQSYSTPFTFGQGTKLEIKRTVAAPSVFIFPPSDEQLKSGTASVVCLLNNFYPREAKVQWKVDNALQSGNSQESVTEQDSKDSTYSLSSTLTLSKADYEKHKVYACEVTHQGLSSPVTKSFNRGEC
notes: as for B4
Kd [2]: 270 nM

B6: XENP35611 (bispecific antibody)
heavy 1: B3 heavy 1 with Y33A, E53G
heavy 2: B2 heavy 2
light: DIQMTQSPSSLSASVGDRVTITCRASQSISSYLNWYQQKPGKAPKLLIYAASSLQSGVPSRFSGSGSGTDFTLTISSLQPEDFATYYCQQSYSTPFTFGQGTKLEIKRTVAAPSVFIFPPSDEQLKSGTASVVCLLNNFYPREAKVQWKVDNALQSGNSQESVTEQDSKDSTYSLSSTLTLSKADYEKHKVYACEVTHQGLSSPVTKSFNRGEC
notes: as for B4
Kd [2]: 610 nM

— patent US20220098306A1 (Xencor, published 2022)
